Where a chain is given by its changes, count along the chain named. Blank lines part the entries; values can stand above or below the binder they belong to.
How the values were obtained:
[1] = target: pSer7 CTD peptide (RNA polymerase II CTD, about two heptads, phosphorylated at Ser7); assay: fluorescence polarisation
[2] = target: pSer2 CTD peptide (RNA polymerase II CTD, about two heptads, phosphorylated at Ser2); assay: fluorescence polarisation

Kd [1]: 32.5 µM | Kd [2]: 22.5 µM
B1: RPRD1B CID domain (residues 2-133), wild type (domain or fragment)
chain: SSFSESALEKKLSELSNSQQSVQTLSLWLIHHRKHAGPIVSVWHRELRKAKSNRKLTFLYLANDVIQNSKRKGPEFTREFESVLVDAFSHVAREADEGCKKPLERLLNIWQERSVYGGEFIQQLKLSMEDSK

Kd [2]: 37.9 µM
B2: RPRD1B CID domain (residues 2-133), Arg114A mutant (domain or fragment)
chain: B1 chain with R113A

Kd [2]: 37.8 µM
B3: RPRD1B CID domain (residues 2-133), Tyr61 to alanine (domain or fragment)
chain: B1 chain with Y60A

From publication PMC11775580
